We go through eight variants from FireProtDB (doi:10.1016/j.bbapap.2014.10.010).

What is called Tm is the temperature at the midpoint of the melting transition.

B1: Alanine--glyoxylate aminotransferase, P21549 (parent)
chain: MASHKLLVTPPKALLKPLSIPNQLLLGPGPSNLPPRIMAAGGLQMIGSMSKDMYQIMDEIKEGIQYVFQTRNPLTLVISGSGHCALEAALVNVLEPGDSFLVGANGIWGQRAVDIGERIGARVHPMTKDPGGHYTLQEVEEGLAQHKPVLLFLTHGESSTGVLQPLDGFGELCHRYKCLLLVDSVASLGGTPLYMDRQGIDILYSGSQKALNAPPGTSLISFSDKAKKKMYSRKTKPFSFYLDIKWLANFWGCDDQPRMYHHTIPVISLYSLRESLALIAEQGLENSWRQHREAAAYLHGRLQALGLQLFVKDPALRLPTVTTVAVPAGYDWRDIVSYVIDHFDIEIMGGLGPSTGKVLRIGLLGCNATRENVDRVTEALRAALQHCPKKKL

In this data set the parent is B1. To be noted: Homo sapiens; pH 7.4; Thermal; DSC; Hepes 20 mM; NaCl 200 mM; transition: 2; reversible: No; structure 1H0C; whole UniProt chain shown.

As to MASHKLLVTPLKALLKPLSIPNQLLLGPGPSNLPPRIMAAGGLQMIGSMSKDMYQIMDEIKEGIQYVFQTRNPLTLVISGSGHCALEAALVNVLEPGDSFLVGANGIWGQRAVDIGERIGARVHPMTKDPGGHYTLQEVEEGLAQHKPVLLFLTHGESSTGVLQPLDGFGELCHRYKCLLLVDSVASLGGTPLYMDRQGIDILYSGSQKALNAPPGTSLISFSDKAKKKMYSRKTKPFSFYLDIKWLANFWGCDDQPRMYHHTIPVISLYSLRESLALIAEQGLENSWRQHREAAAYLHGRLQALGLQLFVKDPALRLPTVTTVAVPAGYDWRDIVSYVIDHFDIEIMGGLGPSTGKVLRIGLLGCNATRENVDRVTEALRAALQHCPKKKL [P11L], the Tm turned out to be 73.8 °C; the “change of melting temperature, mutant - wild type (higher = more stable)” value (shortened to “change of melting temperature, mutant”) is 3.8 °C; the “unfolding enthalpy (calorimetric)” value came to 399 kcal/mol.
Regarding MASHKLLVTPLKALLKPLSIPNQLLLGPGPSNLPPRIMAAGGLQMIGSMSKDMYQIMDEIKEGIQYVFQTRNPLTLVISGSGHCALEAALVNVLEPGDSFLVGANGIWGQRAVDIGERIGARVHPMTKDPGGHYTLQEVEEGLAQHKPVLLFLTHGESSTGVLQPLDGFGELCHRYKCLLLVDSVASLGGTPLYMDRQGIDILYSGSQKALNAPPGTSLISFSDKAKKKMYSRKTKPFSFYLDIKWLANFWGCDDQPRMYHHTIPVISLYSLRESLALIAEQGLENSWRQHREAAAYLHGRLQALGLQLFVKDPALRLPTVTTVAVPAGYDWRDIVSYVMDHFDIEIMGGLGPSTGKVLRIGLLGCNATRENVDRVTEALRAALQHCPKKKL [P11L I340M], the Tm was determined as 76.6 °C; the “change of melting temperature, mutant” value amounted to 6.6 °C; the “unfolding enthalpy (calorimetric)” value worked out at 375 kcal/mol.
Turning to MASHKLLVTPLKALLKPLSIPNQLLLGPGPSNLPPRIMAAGGLQMIGSMSKDMYQIMDEIKEGIQYVFQTRNPLTLVISGSGHCALEAALVNVLEPGDSFLVGANGIWGQRAVDIGERIGARVHPMTKDPGGHYTLQEVEEGLAQHKPVLLFLTHGESSTGVLQPLDGFGELCHRYKCLLLVDSVASLGGTPLYMDRQGIDILYSGSQKALNAPPGTSLISFSDKAKKKMYSRKTKPFSFYLDIKWLANFWGCDDQPRMYHHTIPVISLYSLRESLALIAEQGLENSWRQHREATAYLHGRLQALGLQLFVKDPALRLPTVTTVAVPAGYDWRDIVSYVMDHFDIEIMGGLGPSTGKVLRIGLLGCNATRENVDRVTEALRAALQHCPKKKL [P11L I340M A295T], the Tm turned out to be 77.5 °C; the “change of melting temperature, mutant” value is 7.5 °C; the “unfolding enthalpy (calorimetric)” value was 500 kcal/mol.
The corresponding values for MASHKLLVTPPKALLKPLSIPNRLLLGPGPSNLPPRIMAAGGLQMIGSMSKDMYQIMDEIKEGIQYVFQTRNPLTLVISGSGHCALEAALVNVLEPGDSFLVGANGIWGQRAVDIGERIGARVHPMTKDPGGHYTLQEVEEGLAQHKPVLLFLTHGESSTGVLQPLDGFGELCHRYKCLLLVDSVASLGGTPLYMDRQGIDILYSGSQKALNAPPGTSLISFSDKAKKKMYSRKTKPFSFYLDIKWLANFWGCDDQPRMYHHTIPVISLYSLRESLALIAEQGLENSWRQHREAAAYLHGRLQALGLQLFVKDPALRLPTVTTVAVPAGYDWRDIVSYVIDHFDIEIMGGLGPSTGKVLRIGLLGCNATRENVDRVTEALRAALQHCPKKKL [Q23R] are 84.5 °C, 14.5 °C and 475 kcal/mol.
In the same order, the values of MASHKLLVTPPKALLKPLSIPNRLLLGPGPSNLPPRIMAAGGLQMIGHMSKEMYQIMDEIKEGIQYVFQTRNPLTLVISGSGHCALEAALVNVLEPGDSFLVGANGIWGQRAVDIGERIGARVHPMTKDPGGHYTLQEVEEGLAQHKPVLLFLTHGESSTGVLQPLDGFGELCHRYKCLLLVDSVASLGGTPLYMDRQGIDILYSGSQKALNAPPGTSLISFSDKAKKKMYSRKTKPFSFYLDIKWLANFWGCDDQPRMYHHTIPVISLYSLRESLALIAEQGLENSWRQHREAAAYLHGRLQALGLQLFVKDPALRLPTVTTVAVPAGYDWRDIVSYVMDHFDIEIMGGLGPSTGKVLRIGLLGCNATRENVDRVTEALRAALQHCPKKKL [Q23R S48H D52E I340M] are 92 °C, 22 °C and 609 kcal/mol.
In the case of MASHKLLVTPLKALLKPLSIPNQLLLGPGPSNLPPRIMAAGGLQMIGSMSKDMYQIMDEIKEGIQYVFQTRNPLTLVISGSGRCALEAALVNVLEPGDSFLVGANGIWGQRAVDIGERIGARVHPMTKDPGGHYTLQEVEEGLAQHKPVLLFLTHGESSTGVLQPLDGFGELCHRYKCLLLVDSVASLGGTPLYMDRQGIDILYSGSQKALNAPPGTSLISFSDKAKKKMYSRKTKPFSFYLDIKWLANFWGCDDQPRMYHHTIPVISLYSLRESLALIAEQGLENSWRQHREAAAYLHGRLQALGLQLFVKDPALRLPTVTTVAVPAGYDWRDIVSYVMDHFDIEIMGGLGPSTGKVLRIGLLGCNATRENVDRVTEALRAALQHCPKKKL [P11L I340M H83R], the Tm is 58.2 °C; the “change of melting temperature, mutant” value was -11.8 °C; the “unfolding enthalpy (calorimetric)” value came out at 235 kcal/mol.
For MASHKLLVTPLKALLKPLSIPNQLLLGPGPSNLPPRIMAAGGLQMIGSMSKDMYQIMDEIKEGIQYVFQTRNPLTLVISGSGHCALEAALVNVLEPGDSFLVGANGIWGQRAVDIGERIGARVHPMTKDPGGHYTLQEVEEGLAQHKPVLLFLTHGESSTGVLQPLDGFGELCHRYKCLLLVDSVASLGGTPLYMDRQGIDILYSGSQKALNAPPGTSLISFSDKAKKKMYSRKTKPFSFYLDTKWLANFWGCDDQPRMYHHTIPVISLYSLRESLALIAEQGLENSWRQHREAAAYLHGRLQALGLQLFVKDPALRLPTVTTVAVPAGYDWRDIVSYVMDHFDIEIMGGLGPSTGKVLRIGLLGCNATRENVDRVTEALRAALQHCPKKKL [P11L I340M I244T], the Tm was determined as 75.8 °C; the “change of melting temperature, mutant” value was 5.8 °C; the “unfolding enthalpy (calorimetric)” value is 402 kcal/mol.
Consider MASHKLLVTPLKALLKPLSIPNQLLLGPGPSNLPPRIMAAGGLQMIGSMSKDMYQIMDEIKEGIQYVFQTRNPLTLVISGSGHCALEAALVNVLEPGDSFLVGANGIWGQRAVDIGERIGARVHPMTKDPGGHYTLQEVEEGLAQHKPVLLFLTHGESSTGVLQPLDGFRELCHRYKCLLLVDSVASLGGTPLYMDRQGIDILYSGSQKALNAPPGTSLISFSDKAKKKMYSRKTKPFSFYLDIKWLANFWGCDDQPRMYHHTIPVISLYSLRESLALIAEQGLENSWRQHREAAAYLHGRLQALGLQLFVKDPALRLPTVTTVAVPAGYDWRDIVSYVMDHFDIEIMGGLGPSTGKVLRIGLLGCNATRENVDRVTEALRAALQHCPKKKL [P11L I340M G170R], for which the Tm is 75.5 °C; the “change of melting temperature, mutant” value amounted to 5.5 °C; the “unfolding enthalpy (calorimetric)” value is 459 kcal/mol.
